# Reference: patent US20110118131A1 (published 2011)
# Target: T1, IL-1beta (UniProt P01584 117-269)
# T1 construct: also called IL-1β
# Assay: Biacore
Binder,fold difference in affinity vs parental [fold],binding result
"XPA23 Fab, heavy chain P53W (Fab, V domains shown) VH: EVQLLESGGGLVQPGGSLRLSCAASGFTFSKYFMFWVRQAPGKGLEWVSVISWSGGMTRYADSVKGRFTISRDNSKNTLYLQMNSLRAEDTAVYYCARVGYGGNSDYWGQGTLVTVSS VL: DIQMTQSPSSVSASVGDRLTIICRASQDINRWLAWYQQTPGNAPKLLIHSATSLQSGVPSRFSGSGSGTDFTLTINSLQPEDFATYYCQQADSFPLTFGGGTKVEIK",0.05,–
"XPA23 Fab, heavy chain S30Y (Fab, V domains shown) VH: EVQLLESGGGLVQPGGSLRLSCAASGFTFYKYFMFWVRQAPGKGLEWVSVISPSGGMTRYADSVKGRFTISRDNSKNTLYLQMNSLRAEDTAVYYCARVGYGGNSDYWGQGTLVTVSS VL: DIQMTQSPSSVSASVGDRLTIICRASQDINRWLAWYQQTPGNAPKLLIHSATSLQSGVPSRFSGSGSGTDFTLTINSLQPEDFATYYCQQADSFPLTFGGGTKVEIK",–,no binding
"XPA23 Fab, heavy chain R59K (Fab, V domains shown) VH: EVQLLESGGGLVQPGGSLRLSCAASGFTFSKYFMFWVRQAPGKGLEWVSVISPSGGMTKYADSVKGRFTISRDNSKNTLYLQMNSLRAEDTAVYYCARVGYGGNSDYWGQGTLVTVSS VL: DIQMTQSPSSVSASVGDRLTIICRASQDINRWLAWYQQTPGNAPKLLIHSATSLQSGVPSRFSGSGSGTDFTLTINSLQPEDFATYYCQQADSFPLTFGGGTKVEIK",0.94,–
"XPA23 Fab, heavy chain S30K (Fab, V domains shown) VH: EVQLLESGGGLVQPGGSLRLSCAASGFTFKKYFMFWVRQAPGKGLEWVSVISPSGGMTRYADSVKGRFTISRDNSKNTLYLQMNSLRAEDTAVYYCARVGYGGNSDYWGQGTLVTVSS VL: DIQMTQSPSSVSASVGDRLTIICRASQDINRWLAWYQQTPGNAPKLLIHSATSLQSGVPSRFSGSGSGTDFTLTINSLQPEDFATYYCQQADSFPLTFGGGTKVEIK",–,no binding
"XPA23 Fab, heavy chain P53Y (Fab, V domains shown) VH: EVQLLESGGGLVQPGGSLRLSCAASGFTFSKYFMFWVRQAPGKGLEWVSVISYSGGMTRYADSVKGRFTISRDNSKNTLYLQMNSLRAEDTAVYYCARVGYGGNSDYWGQGTLVTVSS VL: DIQMTQSPSSVSASVGDRLTIICRASQDINRWLAWYQQTPGNAPKLLIHSATSLQSGVPSRFSGSGSGTDFTLTINSLQPEDFATYYCQQADSFPLTFGGGTKVEIK",0.03,–
"XPA23 Fab, heavy chain R59Q (Fab, V domains shown) VH: EVQLLESGGGLVQPGGSLRLSCAASGFTFSKYFMFWVRQAPGKGLEWVSVISPSGGMTQYADSVKGRFTISRDNSKNTLYLQMNSLRAEDTAVYYCARVGYGGNSDYWGQGTLVTVSS VL: DIQMTQSPSSVSASVGDRLTIICRASQDINRWLAWYQQTPGNAPKLLIHSATSLQSGVPSRFSGSGSGTDFTLTINSLQPEDFATYYCQQADSFPLTFGGGTKVEIK",0.86,–
"XPA23 Fab, heavy chain R59S (Fab, V domains shown) VH: EVQLLESGGGLVQPGGSLRLSCAASGFTFSKYFMFWVRQAPGKGLEWVSVISPSGGMTSYADSVKGRFTISRDNSKNTLYLQMNSLRAEDTAVYYCARVGYGGNSDYWGQGTLVTVSS VL: DIQMTQSPSSVSASVGDRLTIICRASQDINRWLAWYQQTPGNAPKLLIHSATSLQSGVPSRFSGSGSGTDFTLTINSLQPEDFATYYCQQADSFPLTFGGGTKVEIK",0.13,–
"XPA23 Fab, heavy chain S30H (Fab, V domains shown) VH: EVQLLESGGGLVQPGGSLRLSCAASGFTFHKYFMFWVRQAPGKGLEWVSVISPSGGMTRYADSVKGRFTISRDNSKNTLYLQMNSLRAEDTAVYYCARVGYGGNSDYWGQGTLVTVSS VL: DIQMTQSPSSVSASVGDRLTIICRASQDINRWLAWYQQTPGNAPKLLIHSATSLQSGVPSRFSGSGSGTDFTLTINSLQPEDFATYYCQQADSFPLTFGGGTKVEIK",–,no binding
"XPA23 Fab, heavy chain R59W (Fab, V domains shown) VH: EVQLLESGGGLVQPGGSLRLSCAASGFTFSKYFMFWVRQAPGKGLEWVSVISPSGGMTWYADSVKGRFTISRDNSKNTLYLQMNSLRAEDTAVYYCARVGYGGNSDYWGQGTLVTVSS VL: DIQMTQSPSSVSASVGDRLTIICRASQDINRWLAWYQQTPGNAPKLLIHSATSLQSGVPSRFSGSGSGTDFTLTINSLQPEDFATYYCQQADSFPLTFGGGTKVEIK",0.09,–
"XPA23 Fab, heavy chain R59E (Fab, V domains shown) VH: EVQLLESGGGLVQPGGSLRLSCAASGFTFSKYFMFWVRQAPGKGLEWVSVISPSGGMTEYADSVKGRFTISRDNSKNTLYLQMNSLRAEDTAVYYCARVGYGGNSDYWGQGTLVTVSS VL: DIQMTQSPSSVSASVGDRLTIICRASQDINRWLAWYQQTPGNAPKLLIHSATSLQSGVPSRFSGSGSGTDFTLTINSLQPEDFATYYCQQADSFPLTFGGGTKVEIK",–,no binding
"XPA23 Fab, heavy chain R59N (Fab, V domains shown) VH: EVQLLESGGGLVQPGGSLRLSCAASGFTFSKYFMFWVRQAPGKGLEWVSVISPSGGMTNYADSVKGRFTISRDNSKNTLYLQMNSLRAEDTAVYYCARVGYGGNSDYWGQGTLVTVSS VL: DIQMTQSPSSVSASVGDRLTIICRASQDINRWLAWYQQTPGNAPKLLIHSATSLQSGVPSRFSGSGSGTDFTLTINSLQPEDFATYYCQQADSFPLTFGGGTKVEIK",0.86,–
"XPA23 Fab, heavy chain R59H (Fab, V domains shown) VH: EVQLLESGGGLVQPGGSLRLSCAASGFTFSKYFMFWVRQAPGKGLEWVSVISPSGGMTHYADSVKGRFTISRDNSKNTLYLQMNSLRAEDTAVYYCARVGYGGNSDYWGQGTLVTVSS VL: DIQMTQSPSSVSASVGDRLTIICRASQDINRWLAWYQQTPGNAPKLLIHSATSLQSGVPSRFSGSGSGTDFTLTINSLQPEDFATYYCQQADSFPLTFGGGTKVEIK",–,no binding
"XPA23 Fab, heavy chain S30E (Fab, V domains shown) VH: EVQLLESGGGLVQPGGSLRLSCAASGFTFEKYFMFWVRQAPGKGLEWVSVISPSGGMTRYADSVKGRFTISRDNSKNTLYLQMNSLRAEDTAVYYCARVGYGGNSDYWGQGTLVTVSS VL: DIQMTQSPSSVSASVGDRLTIICRASQDINRWLAWYQQTPGNAPKLLIHSATSLQSGVPSRFSGSGSGTDFTLTINSLQPEDFATYYCQQADSFPLTFGGGTKVEIK",–,no binding
"XPA23 Fab, heavy chain S30F (Fab, V domains shown) VH: EVQLLESGGGLVQPGGSLRLSCAASGFTFFKYFMFWVRQAPGKGLEWVSVISPSGGMTRYADSVKGRFTISRDNSKNTLYLQMNSLRAEDTAVYYCARVGYGGNSDYWGQGTLVTVSS VL: DIQMTQSPSSVSASVGDRLTIICRASQDINRWLAWYQQTPGNAPKLLIHSATSLQSGVPSRFSGSGSGTDFTLTINSLQPEDFATYYCQQADSFPLTFGGGTKVEIK",–,no binding
"XPA23 Fab, heavy chain S30R (Fab, V domains shown) VH: EVQLLESGGGLVQPGGSLRLSCAASGFTFRKYFMFWVRQAPGKGLEWVSVISPSGGMTRYADSVKGRFTISRDNSKNTLYLQMNSLRAEDTAVYYCARVGYGGNSDYWGQGTLVTVSS VL: DIQMTQSPSSVSASVGDRLTIICRASQDINRWLAWYQQTPGNAPKLLIHSATSLQSGVPSRFSGSGSGTDFTLTINSLQPEDFATYYCQQADSFPLTFGGGTKVEIK",0.1,–
"XPA23 Fab, heavy chain R59D (Fab, V domains shown) VH: EVQLLESGGGLVQPGGSLRLSCAASGFTFSKYFMFWVRQAPGKGLEWVSVISPSGGMTDYADSVKGRFTISRDNSKNTLYLQMNSLRAEDTAVYYCARVGYGGNSDYWGQGTLVTVSS VL: DIQMTQSPSSVSASVGDRLTIICRASQDINRWLAWYQQTPGNAPKLLIHSATSLQSGVPSRFSGSGSGTDFTLTINSLQPEDFATYYCQQADSFPLTFGGGTKVEIK",–,no binding
"XPA23 Fab, heavy chain S30N (Fab, V domains shown) VH: EVQLLESGGGLVQPGGSLRLSCAASGFTFNKYFMFWVRQAPGKGLEWVSVISPSGGMTRYADSVKGRFTISRDNSKNTLYLQMNSLRAEDTAVYYCARVGYGGNSDYWGQGTLVTVSS VL: DIQMTQSPSSVSASVGDRLTIICRASQDINRWLAWYQQTPGNAPKLLIHSATSLQSGVPSRFSGSGSGTDFTLTINSLQPEDFATYYCQQADSFPLTFGGGTKVEIK",0.15,–
"XPA23 Fab, heavy chain S30W (Fab, V domains shown) VH: EVQLLESGGGLVQPGGSLRLSCAASGFTFWKYFMFWVRQAPGKGLEWVSVISPSGGMTRYADSVKGRFTISRDNSKNTLYLQMNSLRAEDTAVYYCARVGYGGNSDYWGQGTLVTVSS VL: DIQMTQSPSSVSASVGDRLTIICRASQDINRWLAWYQQTPGNAPKLLIHSATSLQSGVPSRFSGSGSGTDFTLTINSLQPEDFATYYCQQADSFPLTFGGGTKVEIK",0.77,–
"XPA23 Fab, heavy chain S30Q (Fab, V domains shown) VH: EVQLLESGGGLVQPGGSLRLSCAASGFTFQKYFMFWVRQAPGKGLEWVSVISPSGGMTRYADSVKGRFTISRDNSKNTLYLQMNSLRAEDTAVYYCARVGYGGNSDYWGQGTLVTVSS VL: DIQMTQSPSSVSASVGDRLTIICRASQDINRWLAWYQQTPGNAPKLLIHSATSLQSGVPSRFSGSGSGTDFTLTINSLQPEDFATYYCQQADSFPLTFGGGTKVEIK",–,no binding
"XPA23 Fab, heavy chain S30D (Fab, V domains shown) VH: EVQLLESGGGLVQPGGSLRLSCAASGFTFDKYFMFWVRQAPGKGLEWVSVISPSGGMTRYADSVKGRFTISRDNSKNTLYLQMNSLRAEDTAVYYCARVGYGGNSDYWGQGTLVTVSS VL: DIQMTQSPSSVSASVGDRLTIICRASQDINRWLAWYQQTPGNAPKLLIHSATSLQSGVPSRFSGSGSGTDFTLTINSLQPEDFATYYCQQADSFPLTFGGGTKVEIK",–,no binding
"XPA23 Fab, heavy chain R59F (Fab, V domains shown) VH: EVQLLESGGGLVQPGGSLRLSCAASGFTFSKYFMFWVRQAPGKGLEWVSVISPSGGMTFYADSVKGRFTISRDNSKNTLYLQMNSLRAEDTAVYYCARVGYGGNSDYWGQGTLVTVSS VL: DIQMTQSPSSVSASVGDRLTIICRASQDINRWLAWYQQTPGNAPKLLIHSATSLQSGVPSRFSGSGSGTDFTLTINSLQPEDFATYYCQQADSFPLTFGGGTKVEIK",0.92,–
"XPA23 Fab, heavy chain R59Y (Fab, V domains shown) VH: EVQLLESGGGLVQPGGSLRLSCAASGFTFSKYFMFWVRQAPGKGLEWVSVISPSGGMTYYADSVKGRFTISRDNSKNTLYLQMNSLRAEDTAVYYCARVGYGGNSDYWGQGTLVTVSS VL: DIQMTQSPSSVSASVGDRLTIICRASQDINRWLAWYQQTPGNAPKLLIHSATSLQSGVPSRFSGSGSGTDFTLTINSLQPEDFATYYCQQADSFPLTFGGGTKVEIK",–,no binding
